From US20250319129A1
Read-outs that look alike come from different tables or passages of the source. Values belong to the binder of their own block, whether it stands above or below them.

Tests used:
Assay in all cases: cell-based or functional assay
CLDN18.1 (human) = CLDN18.1 (human) (UniProt P56856)
CLDN18.2 (human), P56856 [1] = target: CLDN18.2 (human), P56856
CLDN18.2 (human), P56856 [2] = target: CLDN18.2 (human), P56856; remark: listed apart in the source

cytokine secretion (IFN-γ) (CLDN18.1 (human)): < 100 µg/mL
B1: 21009 chimeric antigen receptor (on CAR-T cells) (protein, part only; not given: hinge, transmembrane and signalling parts, part only)
chain, part: EVQVVESGGGLVQPGGSLRLSCAASGNIFRTDIGMWYRQAPGKGRELVAGTTTGRSGYVDKASIGRFTISRDNAKNTMYLQMNSLRAEDTAVYYCNAYGVWEQTPFDALRWGQGTLVTVSS

cytokine secretion (IFN-γ) (CLDN18.1 (human)): < 100 µg/mL
B2: 21050 chimeric antigen receptor (on CAR-T cells) (protein, part only; not given: hinge, transmembrane and signalling parts, part only)
chain, part: QVQLQQPGAELVRPGASVKLSCKASGYTFTSYWINWVKQRPGQGLEWIGNIYPSDSYTNYNQKFKDKATLTVDKSSSTAYMQLSSPTSEDSAVYYCTRSWRGNSFDYWGQGTTLTVSSGGGGSGGGGSGGGGSDIVMTQSPSSLTVTAGEKVTMSCKSSQSLLNSGNQKNYLTWYQQKPGQPPKLLIYWASTRESGVPDRFTGSGSGTDFTLTISSVQAEDLAVYYCQNDYSYPFTFGSGTKLEIK

IFN-γ secretion levels (CLDN18.2 (human), P56856 [1]): > 10000 pg/mL
IFN-γ secretion levels (CLDN18.2 (human), P56856 [2]): > 5000 pg/mL
B3: 21047 chimeric antigen receptor (on CAR-T cells) (protein)
chain: QVQLVESGGGLVQPGGSLRLSCAASGSIFNIPVMGWYRQAPGKQRELVAGISTGGTTNYGDSVKGRFTISRDNAKNTVYLQMNSLKPEDTAVYYCNVLVVSGIGSTLEVWGQGTLVTVSSIEVMYPPPYLDNEKSNGTIIHVKGKHLCPSPLFPGPSKPFWVLVVVGGVLACYSLLVTVAFIIFWVRSKRSRLLHSDYMNMTPRRPGPTRKHYQPYAPPRDFAAYRSRVKFSRSADAPAYQQGQNQLYNELNLGRREEYDVLDKRRGRDPEMGGKPRRKNPQEGLYNELQKDKMAEAYSEIGMKGERRRGKGHDGLYQGLSTATKDTYDALHMQALPPR

cytokine secretion (IFN-γ) (CLDN18.1 (human)): < 100 µg/mL
B4: 21011 chimeric antigen receptor (on CAR-T cells) (protein, part only; not given: hinge, transmembrane and signalling parts, part only)
chain, part: EVQLVESGGGLVQPGGSLRLSCAASGSIFSVNGIMWYRQAPGKQRELVAARYTGSVIDSGKTGTGRFTISRDNAKNTLYLQMNSLRAEDTAVYYCNAPTAALTRVEWDVYSLWGQGTLVTVSS
